Assay results published in the RNAGym collection of RNA variant scans (doi:10.1093/molbev/msab373).

B1: Azoarcus group I ribozyme (parent)
chain: GUGCCUUGCGCCGGGAAACCACGCAAGGGAUGGUGUCAAAUUCGGCGAAACCUAAGCGCCCGCCCGGGCGUAUGGCAACGCCGAGCCAAGCUUCGGCGCCUGCGCCGAUGAAGGUGUAGAGACUAGACGGCACCCACCUAAGGCAAACGCUAUGGUGAAGGCAUAGUCCAGGGAGUGGCGAAAGUCACACAAACCGG

Variants of: B1
Test: reverse-splicing fitness (ratio to wild type); higher = more active; in vitro selection; Mg2+ level not given
Procedure, shortened: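 An in vitro group I ribozyme library with randomized positions was T7-transcribed and gel-purified. In triplicate, 10 pmol RNA in EPPS pH 7.5 was reacted with 50 pmoles of a 30-nt RNA substrate for 1 h at 37 °C across several added MgCl2 levels (1–48 mM), then stopped with EDTA. Products were reverse transcribed from a substrate-complementary primer, PCR-amplified and sequenced (HiSeq 4000). Fitness is a variant's read proportion after selection over that before, normalised to wild type.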

Row | Variant | reverse-splicing fitness
1 | GUGCCUUGCGCCGGGAAACCACGCAAGGGAUGGUGUCAAAUUCGGCGAAACCUAAGCGCCCGCCCGGGCGUAUGGCAACGCGGAGCCAAGCUUCGGCGCCUGCGCCGAUGUAGGUGUAGAGACUAGACGGCACCCACCUAAGGCUAACGCUAUGGUGAAGGCAUAGUCGAGGGAGUGGCGAAAGUCACACAAACCGG [C82G A111U A145U C169G] | 0.00896
2 | GUGCCUUGCGCCGGGAAACCACGCAAGGGAUGGUGUCAAAUUCGGCGAAACCUAAGCGCCCGCCCGGGCGUAUGGCAACGCGGAGCCAAGCUUCGGCGCCUGCGCCGAUGUAGGUGUAGAGACUAGACGGCACCCACCUAAGGCUAACGCUAUGGUGAAGGCAUAGUCAAGGGAGUGGCGAAAGUCACACAAACCGG [C82G A111U A145U C169A] | 0.00754
3 | GUGCCUUGCGCCGGGAAACCACGCAAGGGAUGGUGUCAAAUUCGGCGAAACCUAAGCGCCCGCCCGGGCGUAUGGCAACGCGGAGCCAAGCUUCGGCGCCUGCGCCGAUGUAGGUGUAGAGACUAGACGGCACCCACCUAAGGCUAACGUUAUGGUGAAGGCAUAGUCGAGGGAGGGGCGAAAGUCACACAAACCGG [C82G A111U A145U C150U C169G U176G] | 0.00659
4 | GUGCCUUGCGCCGGGAAACCACGCAAGGGAUGGUGUCAAAUUCGGCGAAACCUAAGCGCCCGCCCGGGCGUAUGGCAACGCGGAGCCAAGCUUCGGCGCCUGCGCCGAUGUAGGUGUAGAGACUAGACGGCACCCACCUAAGGCUAACGUUAUGGUGAAGGCAUAGUCGAGGGAGCGGCGAAAGUCACACAAACCGG [C82G A111U A145U C150U C169G U176C] | 0.0142
5 | GUGCCUUGCGCCGGGAAACCACGCAAGGGAUGGUGUCAAAUUCGGCGAAACCUAAGCGCCCGCCCGGGCGUAUGGCAACGCGGAGCCAAGCUUCGGCGCCUGCGCCGAUGUAGGUGUAGAGACUAGACGGCACCCACCUAAGGCUAACGUUAUGGUGAAGGCAUAGUCGAGGGAGAGGCGAAAGUCACACAAACCGG [C82G A111U A145U C150U C169G U176A] | 0.0132
6 | GUGCCUUGCGCCGGGAAACCACGCAAGGGAUGGUGUCAAAUUCGGCGAAACCUAAGCGCCCGCCCGGGCGUAUGGCAACGCGGAGCCAAGCUUCGGCGCCUGCGCCGAUGUAGGUGUAGAGACUAGACGGCACCCACCUAAGGCUAACGUUAUGGUGAAGGCAUAGUCUAGGGAGGGGCGAAAGUCACACAAACCGG [C82G A111U A145U C150U C169U U176G] | 0.00609
7 | GUGCCUUGCGCCGGGAAACCACGCAAGGGAUGGUGUCAAAUUCGGCGAAACCUAAGCGCCCGCCCGGGCGUAUGGCAACGCGGAGCCAAGCUUCGGCGCCUGCGCCGAUGUAGGUGUAGAGACUAGACGGCACCCACCUAAGGCUAACGUUAUGGUGAAGGCAUAGUCUAGGGAGCGGCGAAAGUCACACAAACCGG [C82G A111U A145U C150U C169U U176C] | 0.0136
8 | GUGCCUUGCGCCGGGAAACCACGCAAGGGAUGGUGUCAAAUUCGGCGAAACCUAAGCGCCCGCCCGGGCGUAUGGCAACGCGGAGCCAAGCUUCGGCGCCUGCGCCGAUGUAGGUGUAGAGACUAGACGGCACCCACCUAAGGCUAACGUUAUGGUGAAGGCAUAGUCUAGGGAGAGGCGAAAGUCACACAAACCGG [C82G A111U A145U C150U C169U U176A] | 0.0142
9 | GUGCCUUGCGCCGGGAAACCACGCAAGGGAUGGUGUCAAAUUCGGCGAAACCUAAGCGCCCGCCCGGGCGUAUGGCAACGCGGAGCCAAGCUUCGGCGCCUGCGCCGAUGUAGGUGUAGAGACUAGACGGCACCCACCUAAGGCUAACGUUAUGGUGAAGGCAUAGUCCAGGGAGGGGCGAAAGUCACACAAACCGG [C82G A111U A145U C150U U176G] | 0.043
10 | GUGCCUUGCGCCGGGAAACCACGCAAGGGAUGGUGUCAAAUUCGGCGAAACCUAAGCGCCCGCCCGGGCGUAUGGCAACGCGGAGCCAAGCUUCGGCGCCUGCGCCGAUGUAGGUGUAGAGACUAGACGGCACCCACCUAAGGCUAACGUUAUGGUGAAGGCAUAGUCCAGGGAGAGGCGAAAGUCACACAAACCGG [C82G A111U A145U C150U U176A] | 0.124
11 | GUGCCUUGCGCCGGGAAACCACGCAAGGGAUGGUGUCAAAUUCGGCGAAACCUAAGCGCCCGCCCGGGCGUAUGGCAACGCGGAGCCAAGCUUCGGCGCCUGCGCCGAUGUAGGUGUAGAGACUAGACGGCACCCACCUAAGGCUAACGUUAUGGUGAAGGCAUAGUCCAGGGAGCGGCGAAAGUCACACAAACCGG [C82G A111U A145U C150U U176C] | 0.152
12 | GUGCCUUGCGCCGGGAAACCACGCAAGGGAUGGUGUCAAAUUCGGCGAAACCUAAGCGCCCGCCCGGGCGUAUGGCAACGCGGAGCCAAGCUUCGGCGCCUGCGCCGAUGUAGGUGUAGAGACUAGACGGCACCCACCUAAGGCUAACGUUAUGGUGAAGGCAUAGUCUAGGGAGUGGCGAAAGUCACACAAACCGG [C82G A111U A145U C150U C169U] | 0.0113
13 | GUGCCUUGCGCCGGGAAACCACGCAAGGGAUGGUGUCAAAUUCGGCGAAACCUAAGCGCCCGCCCGGGCGUAUGGCAACGCGGAGCCAAGCUUCGGCGCCUGCGCCGAUGUAGGUGUAGAGACUAGACGGCACCCACCUAAGGCUAACGCUAUGGUGAAGGCAUAGUCAAGGGAGAGGCGAAAGUCACACAAACCGG [C82G A111U A145U C169A U176A] | 0.0121
14 | GUGCCUUGCGCCGGGAAACCACGCAAGGGAUGGUGUCAAAUUCGGCGAAACCUAAGCGCCCGCCCGGGCGUAUGGCAACGCGGAGCCAAGCUUCGGCGCCUGCGCCGAUGUAGGUGUAGAGACUAGACGGCACCCACCUAAGGCUAACGCUAUGGUGAAGGCAUAGUCAAGGGAGCGGCGAAAGUCACACAAACCGG [C82G A111U A145U C169A U176C] | 0.011
15 | GUGCCUUGCGCCGGGAAACCACGCAAGGGAUGGUGUCAAAUUCGGCGAAACCUAAGCGCCCGCCCGGGCGUAUGGCAACGCGGAGCCAAGCUUCGGCGCCUGCGCCGAUGUAGGUGUAGAGACUAGACGGCACCCACCUAAGGCUAACGCUAUGGUGAAGGCAUAGUCAAGGGAGGGGCGAAAGUCACACAAACCGG [C82G A111U A145U C169A U176G] | 0.00626
